Numbered stars: 1 amine (or outer) side, 2 acyl side, 3 side chain; on linkers, the order of the positions; unused ones are H or OH. Bridge positions count the residues as written; N and C are the ends. Square brackets hold non-standard residues; d marks the D form. * marks the point of attachment. C20 diacid = O=C(O)CCCCCCCCCCCCCCCCCCC(=O)*; γGlu = O=C(O)[C@H](CCC(=O)[*:2])N[*:1]; Hyp = O=C(O)[C@@H]1C[C@@H](O)CN1; NMeI = CC[C@H](C)[C@H](NC)C(=O)O; hLys = NCCCCC[C@H](N)C(=O)O; Dab = NCC[C@H](N)C(=O)O; Sar = CNCC(=O)O
Columns and labels:
[1] = target: recombinant human calcitonin receptor (hCT-R) (human), P30988; experiment: cell-based or functional assay
Chain of recombinant human calcitonin receptor (hCT-R) (human), P30988 (P30988 25-474): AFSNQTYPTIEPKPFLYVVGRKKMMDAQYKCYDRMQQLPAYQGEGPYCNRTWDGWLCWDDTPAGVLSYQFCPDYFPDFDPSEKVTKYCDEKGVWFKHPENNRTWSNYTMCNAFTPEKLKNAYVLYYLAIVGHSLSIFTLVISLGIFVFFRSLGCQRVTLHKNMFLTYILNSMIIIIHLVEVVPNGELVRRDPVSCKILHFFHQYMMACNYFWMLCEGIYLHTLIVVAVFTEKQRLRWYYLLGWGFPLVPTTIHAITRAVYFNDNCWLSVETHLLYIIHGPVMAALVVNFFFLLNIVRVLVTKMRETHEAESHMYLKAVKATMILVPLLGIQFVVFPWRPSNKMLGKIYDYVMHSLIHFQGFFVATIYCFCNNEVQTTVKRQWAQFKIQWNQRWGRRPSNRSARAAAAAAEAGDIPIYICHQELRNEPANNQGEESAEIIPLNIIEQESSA

[2] = target: recombinant human amylin 3 receptor (hAMYR3) (human), P30988; experiment: cell-based or functional assay
Chain of recombinant human amylin 3 receptor (hAMYR3) (human), P30988 (P30988 25-474, chain 1 of 2): as the sequence (P30988 25-474) above
Chain of recombinant human amylin 3 receptor (hAMYR3) (human), P30988 (O60896 24-148, chain 2 of 2, further chain): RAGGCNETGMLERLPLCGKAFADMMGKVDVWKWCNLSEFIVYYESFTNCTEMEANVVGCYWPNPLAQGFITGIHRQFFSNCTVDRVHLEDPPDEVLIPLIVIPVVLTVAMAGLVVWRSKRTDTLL

Row | Binder | hCT-R EC50 [nM] (cAMP formation, 1321N1 cells expressing hCT-R) [1] | hAMYR3 EC50 [nM] (cAMP formation, 1321N1 cells expressing hAMYR3) [2]
1 | {C20 diacid-γGlu}-RDGTAT[Dab]ATERLAHFLQRSSF[Sar]A[NMeI]LSSTEVGSNT[Hyp]-NH2 (lactam 2-7; SMILES CC[C@H](C)[C@@H](C(=O)N[C@@H](CC(C)C)C(=O)N[C@@H](CO)C(=O)N[C@@H](CO)C(=O)N[C@H](C(=O)N[C@@H](CCC(=O)O)C(=O)N[C@H](C(=O)NCC(=O)N[C@@H](CO)C(=O)N[C@@H](CC(N)=O)C(=O)N[C@H](C(=O)N1C[C@H](O)C[C@H]1C(N)=O)[C@@H](C)O)C(C)C)[C@@H](C)O)N(C)C(=O)[C@H](C)NC(=O)CN(C)C(=O)[C@H](Cc1ccccc1)NC(=O)[C@H](CO)NC(=O)[C@H](CO)NC(=O)[C@H](CCCNC(=N)N)NC(=O)[C@H](CCC(N)=O)NC(=O)[C@H](CC(C)C)NC(=O)[C@H](Cc1ccccc1)NC(=O)[C@H](Cc1c[nH]cn1)NC(=O)[C@H](C)NC(=O)[C@H](CC(C)C)NC(=O)[C@H](CCCNC(=N)N)NC(=O)[C@H](CCC(=O)O)NC(=O)[C@@H](NC(=O)[C@H](C)NC(=O)[C@@H]1CCNC(=O)C[C@H](NC(=O)[C@H](CCCNC(=N)N)NC(=O)CC[C@H](NC(=O)CCCCCCCCCCCCCCCCCCC(=O)O)C(=O)O)C(=O)NCC(=O)N[C@@H]([C@@H](C)O)C(=O)N[C@@H](C)C(=O)N[C@@H]([C@@H](C)O)C(=O)N1)[C@@H](C)O) [Compound 2] | 0.105 | 0.032
2 | {C20 diacid-γGlu}-RDGTASKATERLAHFLQRSSF[Sar]A[NMeI]LSSTEVGSNT[Hyp]-NH2 (lactam 2-7; SMILES CC[C@H](C)[C@@H](C(=O)N[C@@H](CC(C)C)C(=O)N[C@@H](CO)C(=O)N[C@@H](CO)C(=O)N[C@H](C(=O)N[C@@H](CCC(=O)O)C(=O)N[C@H](C(=O)NCC(=O)N[C@@H](CO)C(=O)N[C@@H](CC(N)=O)C(=O)N[C@H](C(=O)N1C[C@H](O)C[C@H]1C(N)=O)[C@@H](C)O)C(C)C)[C@@H](C)O)N(C)C(=O)[C@H](C)NC(=O)CN(C)C(=O)[C@H](Cc1ccccc1)NC(=O)[C@H](CO)NC(=O)[C@H](CO)NC(=O)[C@H](CCCNC(=N)N)NC(=O)[C@H](CCC(N)=O)NC(=O)[C@H](CC(C)C)NC(=O)[C@H](Cc1ccccc1)NC(=O)[C@H](Cc1c[nH]cn1)NC(=O)[C@H](C)NC(=O)[C@H](CC(C)C)NC(=O)[C@H](CCCNC(=N)N)NC(=O)[C@H](CCC(=O)O)NC(=O)[C@@H](NC(=O)[C@H](C)NC(=O)[C@@H]1CCCCNC(=O)C[C@H](NC(=O)[C@H](CCCNC(=N)N)NC(=O)CC[C@H](NC(=O)CCCCCCCCCCCCCCCCCCC(=O)O)C(=O)O)C(=O)NCC(=O)N[C@@H]([C@@H](C)O)C(=O)N[C@@H](C)C(=O)N[C@@H](CO)C(=O)N1)[C@@H](C)O) [Compound 14] | 0.386 | 0.108
3 | {C20 diacid-γGlu}-RDGTATKATERLAHFLQRSSF[Sar]A[NMeI]LSSTEVGSNT[Hyp]-NH2 (lactam 2-7; SMILES CC[C@H](C)[C@@H](C(=O)N[C@@H](CC(C)C)C(=O)N[C@@H](CO)C(=O)N[C@@H](CO)C(=O)N[C@H](C(=O)N[C@@H](CCC(=O)O)C(=O)N[C@H](C(=O)NCC(=O)N[C@@H](CO)C(=O)N[C@@H](CC(N)=O)C(=O)N[C@H](C(=O)N1C[C@H](O)C[C@H]1C(N)=O)[C@@H](C)O)C(C)C)[C@@H](C)O)N(C)C(=O)[C@H](C)NC(=O)CN(C)C(=O)[C@H](Cc1ccccc1)NC(=O)[C@H](CO)NC(=O)[C@H](CO)NC(=O)[C@H](CCCNC(=N)N)NC(=O)[C@H](CCC(N)=O)NC(=O)[C@H](CC(C)C)NC(=O)[C@H](Cc1ccccc1)NC(=O)[C@H](Cc1c[nH]cn1)NC(=O)[C@H](C)NC(=O)[C@H](CC(C)C)NC(=O)[C@H](CCCNC(=N)N)NC(=O)[C@H](CCC(=O)O)NC(=O)[C@@H](NC(=O)[C@H](C)NC(=O)[C@@H]1CCCCNC(=O)C[C@H](NC(=O)[C@H](CCCNC(=N)N)NC(=O)CC[C@H](NC(=O)CCCCCCCCCCCCCCCCCCC(=O)O)C(=O)O)C(=O)NCC(=O)N[C@@H]([C@@H](C)O)C(=O)N[C@@H](C)C(=O)N[C@@H]([C@@H](C)O)C(=O)N1)[C@@H](C)O) [Compound 18] | 0.085 | 0.031

More lines, now with the values ahead:

Row | hCT-R EC50 [nM] (cAMP formation, 1321N1 cells expressing hCT-R) [1] | hAMYR3 EC50 [nM] (cAMP formation, 1321N1 cells expressing hAMYR3) [2] | Binder
4 | 0.056 | 0.017 | {C20 diacid-γGlu}-RDGTATKATQRLAHFLQRSSF[Sar]A[NMeI]PSSTEVGSNT[Hyp]-NH2 (lactam 2-7; SMILES CC[C@H](C)[C@@H](C(=O)N1CCC[C@H]1C(=O)N[C@@H](CO)C(=O)N[C@@H](CO)C(=O)N[C@H](C(=O)N[C@@H](CCC(=O)O)C(=O)N[C@H](C(=O)NCC(=O)N[C@@H](CO)C(=O)N[C@@H](CC(N)=O)C(=O)N[C@H](C(=O)N1C[C@H](O)C[C@H]1C(N)=O)[C@@H](C)O)C(C)C)[C@@H](C)O)N(C)C(=O)[C@H](C)NC(=O)CN(C)C(=O)[C@H](Cc1ccccc1)NC(=O)[C@H](CO)NC(=O)[C@H](CO)NC(=O)[C@H](CCCNC(=N)N)NC(=O)[C@H](CCC(N)=O)NC(=O)[C@H](CC(C)C)NC(=O)[C@H](Cc1ccccc1)NC(=O)[C@H](Cc1c[nH]cn1)NC(=O)[C@H](C)NC(=O)[C@H](CC(C)C)NC(=O)[C@H](CCCNC(=N)N)NC(=O)[C@H](CCC(N)=O)NC(=O)[C@@H](NC(=O)[C@H](C)NC(=O)[C@@H]1CCCCNC(=O)C[C@H](NC(=O)[C@H](CCCNC(=N)N)NC(=O)CC[C@H](NC(=O)CCCCCCCCCCCCCCCCCCC(=O)O)C(=O)O)C(=O)NCC(=O)N[C@@H]([C@@H](C)O)C(=O)N[C@@H](C)C(=O)N[C@@H]([C@@H](C)O)C(=O)N1)[C@@H](C)O) [Compound 15]
5 | 0.043 | 0.035 | {C20 diacid-γGlu}-RDGTATKATQRLAHFLQRSSF[Sar]A[NMeI]LSSTEVGSNT[Hyp]-NH2 (lactam 2-7; SMILES CC[C@H](C)[C@@H](C(=O)N[C@@H](CC(C)C)C(=O)N[C@@H](CO)C(=O)N[C@@H](CO)C(=O)N[C@H](C(=O)N[C@@H](CCC(=O)O)C(=O)N[C@H](C(=O)NCC(=O)N[C@@H](CO)C(=O)N[C@@H](CC(N)=O)C(=O)N[C@H](C(=O)N1C[C@H](O)C[C@H]1C(N)=O)[C@@H](C)O)C(C)C)[C@@H](C)O)N(C)C(=O)[C@H](C)NC(=O)CN(C)C(=O)[C@H](Cc1ccccc1)NC(=O)[C@H](CO)NC(=O)[C@H](CO)NC(=O)[C@H](CCCNC(=N)N)NC(=O)[C@H](CCC(N)=O)NC(=O)[C@H](CC(C)C)NC(=O)[C@H](Cc1ccccc1)NC(=O)[C@H](Cc1c[nH]cn1)NC(=O)[C@H](C)NC(=O)[C@H](CC(C)C)NC(=O)[C@H](CCCNC(=N)N)NC(=O)[C@H](CCC(N)=O)NC(=O)[C@@H](NC(=O)[C@H](C)NC(=O)[C@@H]1CCCCNC(=O)C[C@H](NC(=O)[C@H](CCCNC(=N)N)NC(=O)CC[C@H](NC(=O)CCCCCCCCCCCCCCCCCCC(=O)O)C(=O)O)C(=O)NCC(=O)N[C@@H]([C@@H](C)O)C(=O)N[C@@H](C)C(=O)N[C@@H]([C@@H](C)O)C(=O)N1)[C@@H](C)O) [Compound 16]
6 | 0.028 | 0.006 | {C20 diacid-γGlu}-RDGTAT[hLys]ATERLAHFLQRSSF[Sar]A[NMeI]LSSTEVGSNT[Hyp]-NH2 (lactam 2-7; SMILES CC[C@H](C)[C@@H](C(=O)N[C@@H](CC(C)C)C(=O)N[C@@H](CO)C(=O)N[C@@H](CO)C(=O)N[C@H](C(=O)N[C@@H](CCC(=O)O)C(=O)N[C@H](C(=O)NCC(=O)N[C@@H](CO)C(=O)N[C@@H](CC(N)=O)C(=O)N[C@H](C(=O)N1C[C@H](O)C[C@H]1C(N)=O)[C@@H](C)O)C(C)C)[C@@H](C)O)N(C)C(=O)[C@H](C)NC(=O)CN(C)C(=O)[C@H](Cc1ccccc1)NC(=O)[C@H](CO)NC(=O)[C@H](CO)NC(=O)[C@H](CCCNC(=N)N)NC(=O)[C@H](CCC(N)=O)NC(=O)[C@H](CC(C)C)NC(=O)[C@H](Cc1ccccc1)NC(=O)[C@H](Cc1c[nH]cn1)NC(=O)[C@H](C)NC(=O)[C@H](CC(C)C)NC(=O)[C@H](CCCNC(=N)N)NC(=O)[C@H](CCC(=O)O)NC(=O)[C@@H](NC(=O)[C@H](C)NC(=O)[C@@H]1CCCCCNC(=O)C[C@H](NC(=O)[C@H](CCCNC(=N)N)NC(=O)CC[C@H](NC(=O)CCCCCCCCCCCCCCCCCCC(=O)O)C(=O)O)C(=O)NCC(=O)N[C@@H]([C@@H](C)O)C(=O)N[C@@H](C)C(=O)N[C@@H]([C@@H](C)O)C(=O)N1)[C@@H](C)O) [Compound 19]
7 | 0.058 | 0.025 | {C20 diacid-γGlu}-RDGTATKATERLAHFLQRSSF[Sar]A[NMeI]PSSTEVGSNT[Hyp]-NH2 (lactam 2-7; SMILES CC[C@H](C)[C@@H](C(=O)N1CCC[C@H]1C(=O)N[C@@H](CO)C(=O)N[C@@H](CO)C(=O)N[C@H](C(=O)N[C@@H](CCC(=O)O)C(=O)N[C@H](C(=O)NCC(=O)N[C@@H](CO)C(=O)N[C@@H](CC(N)=O)C(=O)N[C@H](C(=O)N1C[C@H](O)C[C@H]1C(N)=O)[C@@H](C)O)C(C)C)[C@@H](C)O)N(C)C(=O)[C@H](C)NC(=O)CN(C)C(=O)[C@H](Cc1ccccc1)NC(=O)[C@H](CO)NC(=O)[C@H](CO)NC(=O)[C@H](CCCNC(=N)N)NC(=O)[C@H](CCC(N)=O)NC(=O)[C@H](CC(C)C)NC(=O)[C@H](Cc1ccccc1)NC(=O)[C@H](Cc1c[nH]cn1)NC(=O)[C@H](C)NC(=O)[C@H](CC(C)C)NC(=O)[C@H](CCCNC(=N)N)NC(=O)[C@H](CCC(=O)O)NC(=O)[C@@H](NC(=O)[C@H](C)NC(=O)[C@@H]1CCCCNC(=O)C[C@H](NC(=O)[C@H](CCCNC(=N)N)NC(=O)CC[C@H](NC(=O)CCCCCCCCCCCCCCCCCCC(=O)O)C(=O)O)C(=O)NCC(=O)N[C@@H]([C@@H](C)O)C(=O)N[C@@H](C)C(=O)N[C@@H]([C@@H](C)O)C(=O)N1)[C@@H](C)O) [Compound 17]

Source: patent US20180071366A1
